The target of one experiment is T1, GPC3 on HepG2 cells (human, UniProt P51654 25-554).
T1 construct: whole, on cells; also called glypican-3
Put plainly: FACS on HepG2 cells.

Experiment [1] addresses T2, monkey GPC3-His protein (monkey).
T2 construct: Bought protein; also called monkey GPC3 protein
Put plainly: ELISA, monkey GPC3-His coated; antibody 0.02 nM.
Description: (§1) The specific method is described as follows: The antigen protein was diluted with PBS to a final concentration of 1 μg/mL, and the diluent was added to a 96-well ELISA plate at 50 μL/well. The plate was sealed with a plastic film and incubated at 4° C. overnight, washed twice with PBS the next day, and a blocking solution [PBS+2% (w/w) BSA] was added for blocking at room temperature for 2 h. […] After incubation at 37° C. for 2 h, the plate was washed 3 times with PBS. A horseradish peroxidase (HRP)-labeled secondary antibody (purchased from Merck, Cat. No. AP113P) was added for incubation at 37° C. for 1 h, and the plate was washed 5 times with PBS. A TMB substrate was added at 50 μL/well for incubation at room temperature for 10 min, then a stop solution (1.0M HCl) was added at 50 μL/well.

For experiment [2], the target named is T2, monkey GPC3-His protein. Description: ELISA, monkey GPC3-His coated; antibody 0.11 nM.
Description: as §1
Experiment [3] deals with T2, monkey GPC3-His protein. Description: ELISA, monkey GPC3-His coated; antibody 0.53 nM.
Description: as §1
The target of experiment [4] is T2, monkey GPC3-His protein. Description: ELISA, monkey GPC3-His coated; antibody 2.67 nM.
Description: as §1
For experiment [5], the target named is T2, monkey GPC3-His protein. Put plainly: ELISA, monkey GPC3-His coated; antibody 0.004 nM.
Description: as §1
Experiment [6] has as its target T2, monkey GPC3-His protein. Put plainly: ELISA, monkey GPC3-His coated; antibody 13.33 nM.
Description: as §1
The target in experiment [7] is T2, monkey GPC3-His protein. Description: ELISA, monkey GPC3-His coated; antibody 66.66 nM.
Description: as §1
For experiment [8], the target named is T2, monkey GPC3-His protein. Description: ELISA, monkey GPC3-His coated; antibody 0.0008 nM.
Description: as §1
Experiment [9] concerns the target T3, murine GPC3-his protein (murine, UniProt Q8CFZ4 25-558, limits assumed).
T3 construct: Bought protein; also called mouse GPC3 protein; murine GPC3 protein; not shown: His tag
Description: ELISA, murine GPC3-his coated; antibody 0.02 nM.

Experiment [10] concerns the target T3, murine GPC3-his protein. Put plainly: ELISA, murine GPC3-his coated; antibody 0.11 nM.
Description: as §1
In experiment [11] the target is T3, murine GPC3-his protein. Put plainly: ELISA, murine GPC3-his coated; antibody 0.53 nM.
Description: as §1
Experiment [12] addresses T3, murine GPC3-his protein. Put plainly: ELISA, murine GPC3-his coated; antibody 2.67 nM.
Description: as §1
Experiment [13] deals with T3, murine GPC3-his protein. Description: ELISA, murine GPC3-his coated; antibody 0.004 nM.
Description: as §1
For experiment [14], the target named is T3, murine GPC3-his protein. Description: ELISA, murine GPC3-his coated; antibody 13.33 nM.
Description: as §1
Experiment [15] deals with T3, murine GPC3-his protein. Description: ELISA, murine GPC3-his coated; antibody 66.66 nM.
Description: as §1
In experiment [16] the target is T3, murine GPC3-his protein. Put plainly: ELISA, murine GPC3-his coated; antibody 0.0008 nM.
Description: as §1

T3 sequence (Q8CFZ4 25-558 limits assumed): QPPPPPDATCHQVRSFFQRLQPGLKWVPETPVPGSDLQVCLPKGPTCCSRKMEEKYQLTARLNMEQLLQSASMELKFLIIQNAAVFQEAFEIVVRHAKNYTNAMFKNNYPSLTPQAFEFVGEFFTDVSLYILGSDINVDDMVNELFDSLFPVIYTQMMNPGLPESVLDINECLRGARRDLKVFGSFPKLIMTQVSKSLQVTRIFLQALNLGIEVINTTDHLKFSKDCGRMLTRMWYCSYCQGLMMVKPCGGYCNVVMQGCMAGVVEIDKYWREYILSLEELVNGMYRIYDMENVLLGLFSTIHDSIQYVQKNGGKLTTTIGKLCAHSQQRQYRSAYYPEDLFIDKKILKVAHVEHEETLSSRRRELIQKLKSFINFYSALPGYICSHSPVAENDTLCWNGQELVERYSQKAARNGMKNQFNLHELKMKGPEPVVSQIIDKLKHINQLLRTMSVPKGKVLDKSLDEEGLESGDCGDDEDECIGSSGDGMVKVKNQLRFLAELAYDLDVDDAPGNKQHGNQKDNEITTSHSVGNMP

B1: hAb006LH3L1b (antibody, human IgG1, V domains shown)
VH: EVQLVQSGAEVKKPGSSVKVSCKASGYTFTDYEIHWVRQAPGQGLEWMGAIDPKTGNTAYNQKFMGRVTLTADKSTSTAYMELSSLRSEDTAVYYCTRYFSFAYWGQGTLVTVSS
VL: DIVMTQTPLSLPVTPGEPASISCRSSQTFVHSNANTYLQWYLQKPGQSPQLLIYKVSNRFSGVPDRFSGSGSGTDFTLKISRVEAEDVGVYYCFQGSHVPYTFGQGTKLEIK
notes: Humanized F3.38.7, H3+L1b
In the experiment with GPC3 on HepG2 cells, B1 gave a 50% effective concentration (EC50) of 1.49 nM. Besides, the “Max MFI” value with GPC3 on HepG2 cells was found to be 4610. Moreover, the OD450 nm with monkey GPC3-His protein [1] worked out at 1.01; in the experiment with monkey GPC3-His protein [2], 1.99; with monkey GPC3-His protein [3], 2.56; in the experiment with monkey GPC3-His protein [4] it was 2.55; with monkey GPC3-His protein [5], 0.306; with monkey GPC3-His protein [6], 2.38. Besides, the values for the OD450 nm with monkey GPC3-His protein [7] and with monkey GPC3-His protein [8] were 2.67 and 0.125, respectively.

B2: hAb005LH1L1b (antibody, human IgG1, V domains shown)
VH: EVQLVQSGAEVKKPGASVKVSCKASGYTFTDYEMHWVRQAPGQGLEWMGAIDPETGNTAYIQKFKGRVTMTTDKSTSTAYMELRSLRSDDTAVYYCTRFYSYSHWGQGTTVTVSS
VL: DIVMTQTPLSLPVTPGEPASISCRSSQSLVHSNRNTYLHWYLQKPGQSPQLLIYKVSNRFSGVPDRFSGSGSGTDFTLKISRVEAEDVGVYYCSQNTHVPPTFGGGTKVEIK
notes: Humanized F3.54.12, H1+L1b
Molecule B2 registered an EC50 in the experiment with GPC3 on HepG2 cells of 1.01 nM. In addition, the “Max MFI” value with GPC3 on HepG2 cells came to 4800. Moreover, the OD450 nm was determined as 0.664 with monkey GPC3-His protein [1]; 0.949 with monkey GPC3-His protein [2]; 1.09 with monkey GPC3-His protein [3]; 1.11 with monkey GPC3-His protein [4]; 0.215 with monkey GPC3-His protein [5]; 1.16 in the experiment with monkey GPC3-His protein [6]. For the same molecule, the OD450 nm with monkey GPC3-His protein [7] is 1.16; in the experiment with monkey GPC3-His protein [8], 0.107.

B3: hAb001H1L1 (antibody, human IgG1, V domains shown)
VH: EVQLVESGGGLVQPGGSLRLSCAASGFSFNTNAMNWVRQAPGKGLEWVGRIRSKSNNYATYYADSVKDRFTISRDDSKNSLYLQMNSLKTEDTAVYYCVRDGYYVLFAYWGQGTLVTVSS
VL: DIVMTQTPLSLPVTPGEPASISCRFSQSIVNSNGNTYLEWFLQKPGQSPQLLIYKVSNRFSGVPDRFSGSGSGTDFTLKISRVEAEDVGVYYCFQGSHVPFTFGQGTKLEIK
notes: Humanized F2.169.2, H1+L1
For the molecule B3, the OD450 nm in the experiment with murine GPC3-his protein [9] turned out to be 1.32; in the experiment with murine GPC3-his protein [10], 2.31; with murine GPC3-his protein [11], 2.8; with murine GPC3-his protein [12], 2.69; with monkey GPC3-His protein [1], 1.08; with monkey GPC3-His protein [2] it was 1.96. The OD450 nm in the experiment with monkey GPC3-His protein [3] stood at 2.46; with monkey GPC3-His protein [4] it was 2.54; with murine GPC3-his protein [13], 0.48; with murine GPC3-his protein [14], 2.82; in the experiment with murine GPC3-his protein [15], 2.64; in the experiment with monkey GPC3-His protein [5], 0.373. The OD450 nm came to 2.55 with monkey GPC3-His protein [6], 2.55 with monkey GPC3-His protein [7], 0.239 in the experiment with murine GPC3-his protein [16] and 0.198 with monkey GPC3-His protein [8].

B4: hAb001H1aL1 (antibody, human IgG1, V domains shown)
VH: EVQLVESGGGLVQPGGSLRLSCAASGFSFNTNAMNWVRQAPGKGLEWVGRIRSKSNNYATYYADSVKGRFTISRDDSKNSLYLQMNSLKTEDTAVYYCVRDGYYVLFAYWGQGTLVTVSS
VL: DIVMTQTPLSLPVTPGEPASISCRFSQSIVNSNGNTYLEWFLQKPGQSPQLLIYKVSNRFSGVPDRFSGSGSGTDFTLKISRVEAEDVGVYYCFQGSHVPFTFGQGTKLEIK
notes: Humanized F2.169.2, H1a+L1
As to B4, the OD450 nm was found to be 1.15 with murine GPC3-his protein [9]; 1.95 with murine GPC3-his protein [10]; 2.45 with murine GPC3-his protein [11]; 2.52 with murine GPC3-his protein [12]; 1.03 in the experiment with monkey GPC3-His protein [1]; 2 in the experiment with monkey GPC3-His protein [2]. Further, the OD450 nm in the experiment with monkey GPC3-His protein [3] was found to be 2.36; in the experiment with monkey GPC3-His protein [4] it was 2.57; in the experiment with murine GPC3-his protein [13] it was 0.44; with murine GPC3-his protein [14], 2.63; with murine GPC3-his protein [15], 2.68; with monkey GPC3-His protein [5], 0.379. The OD450 nm turned out to be 2.52 with monkey GPC3-His protein [6], 2.52 with monkey GPC3-His protein [7], 0.255 with murine GPC3-his protein [16] and 0.201 with monkey GPC3-His protein [8].

B5: hAb001H1aL1a (antibody, human IgG1, V domains shown)
VH: EVQLVESGGGLVQPGGSLRLSCAASGFSFNTNAMNWVRQAPGKGLEWVGRIRSKSNNYATYYADSVKGRFTISRDDSKNSLYLQMNSLKTEDTAVYYCVRDGYYVLFAYWGQGTLVTVSS
VL: DIVMTQTPLSLPVTPGEPASISCRFSQSIVNSDGNTYLEWFLQKPGQSPQLLIYKVSNRFSGVPDRFSGSGSGTDFTLKISRVEAEDVGVYYCFQGSHVPFTFGQGTKLEIK
notes: Humanized F2.169.2, H1a+L1a
B5: the OD450 nm with murine GPC3-his protein [9] came to 0.67; with murine GPC3-his protein [10] it was 1.49; with murine GPC3-his protein [11], 2.29; in the experiment with murine GPC3-his protein [12], 2.49; with monkey GPC3-His protein [1] it was 0.437; with monkey GPC3-His protein [2], 1.44. In addition, the OD450 nm in the experiment with monkey GPC3-His protein [3] came out at 2.19; in the experiment with monkey GPC3-His protein [4], 2.44; with murine GPC3-his protein [13], 0.206; with murine GPC3-his protein [14], 2.44; in the experiment with murine GPC3-his protein [15] it was 2.45; in the experiment with monkey GPC3-His protein [5] it was 0.132. Moreover, the OD450 nm came to 2.42 in the experiment with monkey GPC3-His protein [6], 2.34 in the experiment with monkey GPC3-His protein [7], 0.092 with murine GPC3-his protein [16] and 0.073 in the experiment with monkey GPC3-His protein [8].

B6: hAb001H1aL1b (antibody, human IgG1, V domains shown)
VH: EVQLVESGGGLVQPGGSLRLSCAASGFSFNTNAMNWVRQAPGKGLEWVGRIRSKSNNYATYYADSVKGRFTISRDDSKNSLYLQMNSLKTEDTAVYYCVRDGYYVLFAYWGQGTLVTVSS
VL: DIVMTQTPLSLPVTPGEPASISCRFSQSIVNSNANTYLEWFLQKPGQSPQLLIYKVSNRFSGVPDRFSGSGSGTDFTLKISRVEAEDVGVYYCFQGSHVPFTFGQGTKLEIK
notes: Humanized F2.169.2, H1a+L1b
With B6, the OD450 nm worked out at 1.15 with murine GPC3-his protein [9]; 2.05 with murine GPC3-his protein [10]; 2.52 with murine GPC3-his protein [11]; 2.68 with murine GPC3-his protein [12]; 1.02 with monkey GPC3-His protein [1]; 1.99 with monkey GPC3-His protein [2]. Moreover, the OD450 nm with monkey GPC3-His protein [3] turned out to be 2.39; with monkey GPC3-His protein [4], 2.39; with murine GPC3-his protein [13], 0.346; with murine GPC3-his protein [14] it was 2.73; with murine GPC3-his protein [15] it was 2.76; with monkey GPC3-His protein [5], 0.347. The OD450 nm with monkey GPC3-His protein [6] was found to be 2.54; with monkey GPC3-His protein [7] it was 2.59; with murine GPC3-his protein [16], 0.185; with monkey GPC3-His protein [8], 0.144.

B7: hAb001H2L1 (antibody, human IgG1, V domains shown)
VH: EVQLVESGGGLVQPGGSLRLSCAASGFSFNTNAMNWVRQAPGKGLEWVGRIRSKSNNYATYYADSVKDRFTISRDDSKSSLYLQMNSLKTEDTAVYYCVRDGYYVLFAYWGQGTLVTVSS
VL: DIVMTQTPLSLPVTPGEPASISCRFSQSIVNSNGNTYLEWFLQKPGQSPQLLIYKVSNRFSGVPDRFSGSGSGTDFTLKISRVEAEDVGVYYCFQGSHVPFTFGQGTKLEIK
notes: Humanized F2.169.2, H2+L1
For the molecule B7, the OD450 nm with murine GPC3-his protein [9] turned out to be 1.27; with murine GPC3-his protein [10], 2.1; in the experiment with murine GPC3-his protein [11] it was 2.48; with murine GPC3-his protein [12], 2.59; in the experiment with monkey GPC3-His protein [1], 1.05; with monkey GPC3-His protein [2], 2.11. Moreover, the OD450 nm in the experiment with monkey GPC3-His protein [3] is 2.47; with monkey GPC3-His protein [4], 2.59; with murine GPC3-his protein [13], 0.524; with murine GPC3-his protein [14], 2.62; in the experiment with murine GPC3-his protein [15], 2.62; with monkey GPC3-His protein [5], 0.4. In addition, the OD450 nm was determined as 2.64 in the experiment with monkey GPC3-His protein [6], 2.68 with monkey GPC3-His protein [7], 0.277 with murine GPC3-his protein [16] and 0.304 with monkey GPC3-His protein [8].

B8: hAb001H1L1a (antibody, human IgG1, V domains shown)
VH: EVQLVESGGGLVQPGGSLRLSCAASGFSFNTNAMNWVRQAPGKGLEWVGRIRSKSNNYATYYADSVKDRFTISRDDSKNSLYLQMNSLKTEDTAVYYCVRDGYYVLFAYWGQGTLVTVSS
VL: DIVMTQTPLSLPVTPGEPASISCRFSQSIVNSDGNTYLEWFLQKPGQSPQLLIYKVSNRFSGVPDRFSGSGSGTDFTLKISRVEAEDVGVYYCFQGSHVPFTFGQGTKLEIK
notes: Humanized F2.169.2, H1+L1a
Regarding B8, the OD450 nm in the experiment with murine GPC3-his protein [9] is 0.657; with murine GPC3-his protein [10], 1.66; in the experiment with murine GPC3-his protein [11] it was 2.37; with murine GPC3-his protein [12], 2.49; with monkey GPC3-His protein [1], 0.39; with monkey GPC3-His protein [2], 1.23. Besides, the OD450 nm with monkey GPC3-His protein [3] worked out at 2.08; with monkey GPC3-His protein [4], 2.27; with murine GPC3-his protein [13], 0.356; with murine GPC3-his protein [14], 2.57; in the experiment with murine GPC3-his protein [15], 2.58; with monkey GPC3-His protein [5] it was 0.211. Besides, the OD450 nm was 2.37 in the experiment with monkey GPC3-His protein [6], 2.16 with monkey GPC3-His protein [7], 0.117 in the experiment with murine GPC3-his protein [16] and 0.068 with monkey GPC3-His protein [8].

The values above are taken from US20260116991A1 (HAINAN SIMCERE ZAIMING PHARMACEUTICAL, published 2026).
